Values joined by “and” are separate entries in the source; they are usually repeats but may differ in a detail not shown here. Equal entries are not always repeated. Where two headings read alike, the source gives them in different places. Starred links: 1 amine or outer side, 2 acyl side, 3 side chain; linkers in the order of their positions; H or OH if unused. Non-standard residues stand in square brackets, D forms with d. Residues, ends and D or L forms follow the SMILES beside them. ξ: configuration not given here. *: point of attachment. GluureaLys(ε-3-ClBenzyl) = O=C(O)CC[C@H](NC(=O)N[C@@H](CCCCN(Cc1cccc(Cl)c1)*)C(=O)O)C(=O)O; Dolaproine = CO[C@@H]([C@@H]1CCCN1)[C@@H](C)C(=O)O; Dil = CC[C@H](C)[C@H](NC)[C@@H](CC(=O)O)OC; X1 = O=C(CCCc1cn(CCCN[*:1])nn1)[*:2]; PABC = O=C(OCc1ccc(N[*:1])cc1)[*:2]; X2 = C[C@@H](N*)[C@@H](O)c1ccccc1; Cit = NC(=O)NCCC[C@H](N)C(=O)O; Suc = O=C(CCC(=O)[*:2])[*:1]; NMeV = CN[C@H](C(=O)O)C(C)C; ξV = CC(C)C(N)C(=O)O; Ahx = NCCCCCC(=O)O
Key:
[1] = Chronic toxicity study, intravenous once every 3 weeks, rabbits; format: in vivo
Text: Chronic toxicity study of Conjugate (1) product on Rats and rabbits.
• 1. Conjugate (I). • 2. Solubilizer Pluronic F127—in the amount, five-fold greater than the conjugate amount by weight. • 3. Diluent—Haemodes infusion solution. • 4. Dimethyl sulfoxide—in the amount of 5% of the prepared volume.
A 1 00 white ° inbred mature male rats about 2 months old with a body weight of 190-210 g and 60 sexually mature male rabbits of the Soviet Chinchilla breed about 2 months old with a body weight of […] were involved in the experiment.
The study design determined the intravenous administration of the test drugs once every 3 weeks for 3 months (a total of 4 injections) for the experiment of chronic toxicity determination. The local irritant effect of the products within intravenous administration will be studied together with the chronic toxicity study.
Each animal received the intravenous injection of the test drug or the reference drug in a volume not exceeding the acceptable volume for a single injection of 2 mL for rats and 20 mL for rabbits. The products were replaced with a Pluronic solution with DMSO in Haemodes in the control group of animals. The duration of observation for laboratory animals was 4 weeks (intermediate stage).
Apparent signs of intoxication were evaluated daily. During the study, integral indicators of animal health were recorded (see Tables 15. 16, 17).

[2] = Pharmacokinetics in plasma of rats after a single injection; format: in vivo; conditions: for level at 0.5 h: 0.50 hour
Protocol: The pharmacokinetics study for the Conjugate (I) product in plasma of rabbits and rats after a single injection.
The leporids and rodents are the standard targets for preclinical studies of potential drug products as well as determining the pharmacokinetic parameters. The rabbits and rats are recommended as test systems to study pharmacokinetic properties of pharmaceutical products by the regulatory documents (FIG. 7, FIG. 8).
This study was performed on healthy awake white outbred mature male rats aged about 3 months with body weight of 190-210 g. […] The pharmacokinetic data, determined from this number of test animals, are sufficient to obtain the primary quantitative characteristics of test product distribution and elimination and the calculation of descriptive statistics parameters.
• 1. Conjugate (1) • 2. Solubilizer Pluronic F127—in the amount, five-fold greater than the conjugate amount by weight. • 3, Diluent—Haemodes infusion solution. • Dimethyl sulfoxide—in the amount of 5% of the prepared volume. • Rabbit experiment (see Tables 5, 6), • Rat experiment (see Tables 7, 8).

[3] = male rabbits, group 7, 81 μg/kg intravenously 1 time in 3 weeks
[4] = male rabbits, group 8, 102 μg/kg intravenously 1 time in 3 weeks
[5] = male, white outbred, rat, plasma, rats N=6, read-out: Concentration in blood plasma, Geometr. mean
[6] = male, white outbred, rat, plasma, rats N=6, read-out: Concentration in blood plasma, Mean value
[7] = male, white outbred, rat, plasma, rats N=6, read-out: Concentration in blood plasma, Median
[8] = male, white outbred, rat, plasma, rats, read-out: Concentration in blood plasma (individual animals)

Compound: CC[C@H](C)[C@@H]([C@@H](CC(=O)N1CCC[C@H]1[C@H](OC)[C@@H](C)C(=O)N[C@H](C)[C@@H](O)c1ccccc1)OC)N(C)C(=O)[C@@H](NC(=O)[C@H](C(C)C)N(C)C(=O)OCc1ccc(NC(=O)[C@H](CCCNC(N)=O)NC(=O)C(NC(=O)CCCc2cn(CCCNC(=O)[C@H](Cc3ccc(O)cc3)NC(=O)[C@H](Cc3ccccc3)NC(=O)CCC(=O)NCCCCCC(=O)N(CCCC[C@H](NC(=O)N[C@@H](CCC(=O)O)C(=O)O)C(=O)O)Cc3cccc(Cl)c3)nn2)C(C)C)cc1)C(C)C (some centres unmarked) [Conjugate (I)] ({GluureaLys(ε-3-ClBenzyl)-Ahx-Suc}-FY[X1][ξV][Cit][PABC][NMeV]V[Dil][Dolaproine]-X2)
- Necropsy [1, 3]: None
- Signs of intoxication [1, 3]: No signs of intoxication
- Necropsy [1, 4]: None
- Signs of intoxication [1, 4]: No signs of intoxication
- Necropsy ([1]; male rabbits, group 9, 122 μg/kg intravenously 1 time in 3 weeks): None
- Signs of intoxication: the intake of food and water ([1]; male rabbits, group 9, 122 μg/kg, after administration): decreased.
- Main observed toxic effect ([1]; rabbits, chronic): decreased body weight gain
- Chronic toxicity (overall) ([1]; rabbits, i.v. once every 3 weeks, intermediate stage 4 weeks): moderate toxicity
- half-life ([2]; male, white outbred, rat, plasma, intravenous, 1.5 mg/kg, rats, individual animals): 4.11 h
- MRT last ([2]; male, white outbred, rat, plasma, intravenous, 1.5 mg/kg, rats, individual animals, read-out: MRT 0-t): 3.98 h
- level at 0.08 h [2, 5]: 19000 ng/mL
- level at 0.08 h [2, 6]: 26100 ng/mL
- level at 0.08 h [2, 7]: 19100 ng/mL
- level at 0.25 h [2, 5]: 17000 ng/mL
- level at 0.25 h [2, 6]: 19900 ng/mL
- level at 0.25 h [2, 7]: 18000 ng/mL
- level at 0.5 h [2, 5]: 16200 ng/mL
- level at 0.5 h [2, 6]: 18000 ng/mL
- level at 0.5 h [2, 7]: 14300 ng/mL
- level at 1 h [2, 5]: 13400 ng/mL
- level at 1 h [2, 6]: 15200 ng/mL
- level at 1 h [2, 7]: 12500 ng/mL
- level at 1.5 h ([2]; male, white outbred, rat, plasma, rats N=6, 1.50 hour, read-out: Concentration in blood plasma, Geometr. mean): 10700 ng/mL
- level at 1.5 h ([2]; male, white outbred, rat, plasma, rats N=6, 1.50 hour, read-out: Concentration in blood plasma, Mean value): 11600 ng/mL
- level at 1.5 h ([2]; male, white outbred, rat, plasma, rats N=6, 1.50 hour, read-out: Concentration in blood plasma, Median): 10700 ng/mL
- level at 2 h [2, 5]: 10900 ng/mL
- level at 2 h [2, 6]: 11500 ng/mL
- level at 2 h [2, 7]: 10500 ng/mL
- level at 3 h [2, 5]: 7480 ng/mL
- level at 3 h [2, 6]: 7680 ng/mL
- level at 3 h [2, 7]: 7470 ng/mL
- level at 4 h ([2]; male, white outbred, rat, plasma, rats N=6, 4.00 hour, read-out: Concentration in blood plasma, Geometr. mean): 5730 ng/mL
- level at 4 h ([2]; male, white outbred, rat, plasma, rats N=6, 4.00 hour, read-out: Concentration in blood plasma, Mean value): 5860 ng/mL
- level at 4 h ([2]; male, white outbred, rat, plasma, rats N=6, 4.00 hour, read-out: Concentration in blood plasma, Median): 5840 ng/mL
- level at 6 h ([2]; male, white outbred, rat, plasma, rats N=6, 6.00 hour, read-out: Concentration in blood plasma, Geometr. mean): 4390 ng/mL
- level at 6 h ([2]; male, white outbred, rat, plasma, rats N=6, 6.00 hour, read-out: Concentration in blood plasma, Mean value): 4500 ng/mL
- level at 6 h ([2]; male, white outbred, rat, plasma, rats N=6, 6.00 hour, read-out: Concentration in blood plasma, Median): 4240 ng/mL
- level at 8 h [2, 5]: 3260 ng/mL
- level at 8 h [2, 6]: 3350 ng/mL
- level at 8 h [2, 7]: 3190 ng/mL
- level at 10 h [2, 5]: 2300 ng/mL
- level at 10 h [2, 6]: 2370 ng/mL
- level at 10 h [2, 7]: 2090 ng/mL
- level at 12 h [2, 5]: 1760 ng/mL
- level at 12 h [2, 6]: 1820 ng/mL
- level at 12 h [2, 7]: 1620 ng/mL
- level at 8 h [2, 8]: 2620 ng/mL
- level at 10 h [2, 8]: 2000 ng/mL
- Concentration in blood plasma (individual animals) ([2]; rats, 1.50 hour): 8007 ng/mL
- Concentration in blood plasma (individual animals) ([2]; rats, 4.00 hour): 5834 ng/mL and 5880 ng/mL
- Concentration in blood plasma (individual animals) ([2]; rats, 6.00 hour): 4247 ng/mL
- AUC0-t ([2]; rats, individual animals): 60334 ng·h/mL and 45653 ng·h/mL and 95993 ng·h/mL and 110564 ng·h/mL and 83377 ng·h/mL and 57819 ng·h/mL
- AUC0-∞ ([2]; rats, individual animals): 69475 ng·h/mL and 54945 ng·h/mL and 115670 ng·h/mL and 121598 ng·h/mL and 96420 ng·h/mL and 69132 ng·h/mL
- C0 ([2]; rats, individual animals): 14307 ng/mL and 5351 ng/mL and 25202 ng/mL and 96531 ng/mL and 27501 ng/mL and 15195 ng/mL
- T1/2 ([2]; rats, individual animals): 5.10 h and 5.00 h and 4.49 h and 4.13 h and 5.14 h
- Vd ([2]; rats, individual animals): 0.12816 L/kg and 0.20101 L/kg and 0.09361 L/kg and 0.07983 L/kg and 0.09261 L/kg and 0.16076 L/kg

From patent US12454527B2, “Conjugate monomethyl auristatin E to obtain a composition for treatment of prostate cancer” (priority 2019, dated 2025)
